# Test results taken from the DeepSol protein solubility set.
# Test: soluble on expression in E. coli; label from the status in PepcDB or PDB records
row,Sequence,soluble on expression in E. coli
1,MSLAHLAAMFDDLVARFGDRPAIVDDRALSYRELDLLVRKIAVSLAALGIGKGDRVALFLGNCWEFLAVTLACNRLGVLVVPIGIRQRRAELEFLLNNSGAKVVVFEAELTDEIPAAAEVPQLAHRFVAHGTAEGARPFEDLLAAEPANAPLAEMHEDDTAVILYTSGTTGKPKGAELTHLSILHSSYAFARAHELTERDRGLVAVPLSHVTGLVGVSYATIAAGGCVVLMRQAFKTVDFLALAARERITYSILVPAIYTLAVMHPEFDKHDLSAWRIGCFGGAPMPVPTIEMLAKRLPNLQLRNAYGATETTSPTTIMPQAYWRDHMDSVGQAVPYAHVRVLDADDNEVAPGEPGELLIAGPMVVPRYWQRPDANAKEFVNGYWRSGDIGSIDQDGFVRVFDRKKDMINRGGFKIFSAEVENVICGIDGVLETAIIGTPDPVLGERVNAIVVTSEGASLSERDVAAYCAARMSDYKVPESIIIRSEPLPRNANGKIQKTVLRETIADRAASYAREGHHHHHH,not soluble
2,MSSSTSPFLRAISRLIKASFFALSKFSLNCMYKSIQAELLKITYLAFMVKAMIFIPKEKHVYSFGPDMKEVARAKPGEIIVFETLDALGGQIRSEEDTVEKIDFSRVNPATGPVYIEGAEKGKILKVKILEIEVNDRGVIVTAPGAGVLGDLVKAPKTKVCRIANGFVQFGEFKIPVRPMIGVIGVASPEEIPTGTPGRHGGNMDTNLITEGSTVYFPIFKDGAYLALGDLHAVMADGEVCVSACEVSGKVTVKTEVLSGSIEWPIVETSDAYYILVSEEDLEDAVREAVKQGVDILRRANELSWDEAYMLASLIMDVQISQLVDPRKTVRVRIPKQYLKMSLFLEHHHHHH,not soluble
3,GAMAPERPLVGVNGLDVTSLRPFDLVIPFTIKKGEITGEVRMPSGKVAQPTITDNKDGTVTVRYAPSEAGLHEMDIRYDNMHIPGSPLQFYVDYVNCGHVTAYGPGLTHGVVNKPATFTVNTKDAGEGGLSLAIEGPSKAEISCTDNQDGTCSVSYLPVLPGDYSILVKYNEQHVPGSPFTARVTGDD,soluble
4,VACMIPAPAYHPDPRFQALGGEFADPVEPADFPETVLRFRNDRAAATVGLETLDDRAWLRHFGRFEPLPDNQTRPLAMRYHGHQFRVYNPDLGDGRGFLFGQLREAGTGRLLDLATKGSGQTPWSRAGDGRLTLKGGVREILAASFLEALGVPTSRWCGL,soluble
5,EFSLSTLLEMTVGLASGANNEERFHRLLDAVRKAVICDCVVLMSLHNDTLTPLAMQGLTRDTLGRRFVVSEHPRLAQICSADLPVRFAADCPLPDPFDGLLLDSEDDLPMHSCMGLPLHFGEQLLGILTLDSLKPDAFDHLSPRSLEILAAIAAATLKMTLTFSELENQAKQTQLRLEELNQEAWSRDSVE,not soluble
6,MNDFSLELPVRTNKPRETGQSILIDNGYPLQFFKDAIAGASDYIDFVKFGWGTSLLTKDLEEKISTLKEHDITFFFGGTLFEKYVSQKKVNEFHRYCTYFGCEYIEISNGTLPMTNKEKAAYIADFSDEFLVLSEVGSKDAELASRQSSEEWLEYIVEDMEAGAEKVITEARESGTGGICSSSGDVRFQIVDDIISSDIDINRLIFEAPNKTLQQGFIQKIGPNVNLANIPFHDAIALETLRLGLRSDTFFLLEHHHHHH,not soluble
7,MSDSTPKTPRGFVVHTAPVGLADDGRDDFTVLASTAPATVSAVFTRSRFAGPSVVLCREAVADGQARGVVVLARNANVATGLEGEENAREVREAVARALGLPEGEMLIASTGVIGRQYPMESIREHLKTLEWPAGEGGFDRAARAIMTTDTRPKEVRVSVGGATLVGIAKGVGMLEPDMATLLTFFATDARLDPAEQDRLFRRVMDRTFNAVSIDTDTSTSDTAVLFANGLAGEVDAGEFEEALHTAALALVKDIASDGEGAAKLIEVQVTGARDDAQAKRVGKTVVNSPLVKTAVHGCDPNWGRVAMAIGKCSDDTDIDQERVTIRFGEVEVYPPKARGDQADDALRAAVAEHLRGDEVVIGIDLAIADGAFTVYGCDLTEGYVRLNSEYTT,soluble
8,SEPIYEEYLANHGTIVKPYYWLSFSLDCSNCPYHIRTGEEARVSLTEFCQIFGFPYGTTFPQTKHLTFYELKTSSGSLVQKGHASSCTGNYIHPESMLFEMNGYLDSAIYNNDSIRHIILYSNNSPCNEANHCCISKMYNFLITYPGITLSIYFSQLYHTEMDFPASAWNREALRSLASLWPRVVLSPISGGIWHSVLHSFISGVSGSHVFQPILTGRALADRHNAYEINAITGVKPYFTDVLLQTKRNPNTKAQEALESYPLNNAFPGQFFQMPSGQLQPNLPPDLRAPVVFVLVPLRDLPPMHMGQNPNKPRNIVRHLNMPQMSFQETKDLGRLPTGRSVEIVEITEQFASSKEADEKKKKKGKK,soluble
9,MCSALVVAAPHSGSGKTTVTAAIARYHRVQGRKVTVFKVGPDFIDPMILRQASGELVYQLDLWLVGEQGCRALLHRAAMDSDLILIEGVMGLFDGTPSSADLAKYFNIPVLGVIDAKAMAQTFAAVTFGLAKFCEDLPFSGVIANRVNTERHAELLSVSLPKAFRFYGRIPKDDTITLPERHLGLVQAQELSDIDVQLDKAASHIANTGLTELPSQVEFFAQEDDNQENIIEGALAGTRIIIIRDSAFSFIYAANIAFLTQTGAELIYCSAMADVHLPDGDILYIPGGYPELYAEQLMNNVTFLSDIRAFSASNKPIVAECGGMLYLLEQLTDMEGQQFSMLGLMPGKATMQKKLAAIGSQWVPLPSFADAAEDSADNIMRGHSFHYSCAEIELEPSSQTTHHPSERAGEYVYQHNNILASYMHWYFPSNPSLTLRIFDKARYLLEHHHHHH,soluble
10,MGQDHIRYDILAQDALRGVIRKVLGEVAATGRLPGDHHFFITFLTGAPGVRISQHLKSKYAEQMTIVIQHQFWDMKVTETGFEIGLSFSDTPEKLVIPYNAIRGFYDPSVNFELEFDVPLAKEEEMEEAEITAYPVSHEAKPASETPKSGEEKKEGSVVSLDAFRKKQLEHHHHHH,soluble
11,MSLKIGPILRSNVNRSITGDFDFREADLSLIRNFPNARVSLRDITLTTAAPFEGDTLFKAREAYLVMGIGELFKGAGEPIGIRELFVSGADLRLRLDAEERPNYLVAAEDPAATGATAASDGFTFDLQGYQIADSKISYMDQSSGISFLLEDIQHTGSGDLSLAESRLETRTDARISLGMDSVQYLDRNSLQLDARIGIDLETDTYTFLENEGLINQMPLVFEGSVQLVEEGQEIDLDFRTPSSDFKNFLALIPEAYSKSLEEVRTSGQFTLEGSITGRSDDTRIPNLDIRMEAVDAAFRYPDLPKGIDDINFSARLLNTTGIAGDTYLEIPAAGFRIDQDVFNMSGNIRSLTGNPEVDAALKGTINLASLDQAYPVELAPGLSGVLRADVQTAFDMASVENKQYGNTRTSGSLQLSNLNFRADNFAEPVKIREARLRFDPVEARLESLSGSLGQSDFTLSGTVRDYLGYLLADGILKGQFSLTSNQLLVSDFMSPEDPGQAEKETGADARASGQAPDGGPAFQIPAAIDVSIRGQAASVVYDGLPLRNVSGNLQIRDQELQLRDVRSDALDGKLALNGTVATGEGLPRFNMDLGIDGFRIRETLESIELFETLAPIASIVEGKLNSRVQLSGLLNSDFSPDLMSLAGNVVAEVLASDITGTRAKVLEALDARMDFFNMEDLDLKGLKTALNFENGLVTVKPFSFTYRDMEVSVAGSHSFDQQLNYTATLQVPAKYLGSDVNRLVTELQEPGLKEGHHHHHH,not soluble
12,MNVLKEVYATIEKRIEEKPEGSYVAKLTTDDKKTAVNKICEKVGEEAAEVIIAAKDNDKAEIIYESADLIFHTMVLLAKSGITYEELSEEFKKRMKLEHHHHHH,not soluble
13,MFKRLSRFLLPLVWIFTATTALADDTQINTMDPYSMVKSVANKTFDRFHKDKALIDADADHLKVIVREELMPYIDYKYASYKVLGQYLKESTEDQRNRFVDAFQGYLVTTYAQAFTEYTNQKVEFSPGSDFSNEKIVDVNVQIIEAGRPPIKLLFKARRLKDDSWKAFDLVAEGVSLLSSKQSEISNLIRQQGIEPVIKMLEERTKDKVTKQPKAGKLEHHHHHH,soluble
14,VDTHSEVLIFEVIPADDFLQQQLQITVQDRVWHVKRVRYRKQKPMALEETWMPLALFPDLTWQVMENSKYHFIEEVKKMVIDRSEQEIIPLMPTEEMSRLLNISQTKPILEKVSRGYLVDGRVFEYSRNAFNT,soluble
15,MKIIGSMGKKTENLKIDAKKSFLKRIAKNVKVSEGERAVEDILRCIYRNQPISTKKIGQYVKLPLPIVSKVRSILERESLLKRDDKGAVLSKKGIDFVENELGLKLKSDMKCPVCSGRNIVFDEKFEKILKKHKTYAKLRPQVNTMIDQSFATPETATARAAIMADRGDLEGKRVLFVGDDDLASIPTAMTGLCSEVVVLDIDDRLLKLISEVSKKENLNIRTVKWDFKNELPSEFVNKFDTIFTDPPYTLNGAVLFMSRGIEALGDNGILYLAFSHKPVEEYIELQKSINNMNFLIYELIPGFNFYEGTEIIGNTTFLARLVGKNLKKIEVNSEKIYTGELKPTLRYYQCMNCKKIHEVGNKVKRIEDLTCECGGKKFSMIKRAKVKQK,not soluble
16,MSWIYDAHIHLSDPEYKSDIDMILNYMDLLKIKACCVSMDIETSNETMALYEKSKNVLPFIGIHPEMAQKSSEPVYELIEKNNEIISGIGEIGLDRTYINSEDEWEIQKDVFSKQLSLAEKFNKPVSIHSRKTLSDIFEILPSYKIPGILLHWFDGNKSQLKTAMENEYFVSYGPLLVYANDKQVLLSKTDPSRLLVETDGPVRFSHCFEYKTTEIMFVPSVLFCASKILHTSYENLLTQIEDNSKKFLGI,soluble
17,MDYKEIVFDVDNTLIDTEYAILHSLQDTIKQINRKIIPIKELSFALGITGEDALRYLKIEDITIALSMWDRNMEKYKNTVLVFKEIKEMLTEIIKLNIGIGIVTSKTHEEFRNDFLSFDIAPYFNTVVCSNDTLEHKPKAVPLLKYMELTKCQNNELLYIGDSIYDMQCAYRANVDFGLVKWGSGDRVSTVISFTTPLDLIRQLSVSSN,not soluble
18,MSLRLVKTALTIAGSDSGGGAGIEADLKTFTAFGVHGLVAITSVTAQNTQAVTAIHDIPPDVVSEQIRAVAEDIGVDAAKTGMLSNAEIIKAVAKTVKNYDFPLVVDPVMIAKSGAPLLREDAVDALIKYILPLATLVTPNRFEAEKLSGMKIRTVEDAKIAAKKIAEETGAKAVIVKGGHIEGEEAIDVLYHNGSYRLYRAPKVEGCTHGTGCSFSAAITANLAKGFGLEDAIEVAKKFITLGIAMGHRIGHGHCPVNQSAWIEIPAEKWRIYEELTRAVREFEEMNPVKFIPEVGTNFVYSLPLPYARTRDDVAGVKGRIVRVGNEVRAVGPVEFGASDHLARAVLTFMKFYPEYRSAINIRYSEETVRLAEEQGLVVSFYDRREEPEEIKEREGATIPWGIESAIKRVKQRPDVIYHLGDVGKEPMILIFGRNPREVLDKLRLEGHHHHHH,soluble
19,MGSDKIHHHHHHMKITLHGVAETLLITLYIRAKDAMAKHPILNDQKSLAIVEQIEYDFDKFDNSEASFYATLARIRVMDREIKKFIRENPNSQILSIGCGLDTRFERVDNGQIRWYNLDLPEVMEIRKLFFEEHERVTNIAKSALDETWTREVNPQNAPFLIVSEGVLMFLKEDDVETFLHILTNSFSQFMAQFDLCHKEMINKGKQHDTVKYMDTEFQFGITDGHEIVDLDPKLKQINLINFTDEMSKFELGTLRSLLPTIRKFNNCLGVYEYKASEKK,not soluble
20,MGSDKIHHHHHHMNYTNEVAKMTCVAKGPNHGPAPIPEEGKWVSAKEIKDISGLTHGVGRCAPQQGACKLTLNVKEGIIQEALVETIGCSGMTHSAAMAAEILSGKTILEALNTDLVCDAINTAMRELFLQIVYGRTQTAFSEGGLPVGAGLEDLGKGHRSQVGTMYSSAAKGPRYLEMVEGYVTKTGLDENNEIIGYEFINFGKMMDMIKQGMDANEAMKKATGNYGRFADAVKVIDPREE,not soluble
